According to paper doi:10.1101/2024.10.14.618219:

Target: microtubules polymerized from porcine tubulin (porcine) (UniProt Q2XVP4)
Experiment: single-molecule TIRF microscopy on microtubules

Chain of Kif3A^ΔC103-Kif3B (Q9Y496 1-596, stated change not applied): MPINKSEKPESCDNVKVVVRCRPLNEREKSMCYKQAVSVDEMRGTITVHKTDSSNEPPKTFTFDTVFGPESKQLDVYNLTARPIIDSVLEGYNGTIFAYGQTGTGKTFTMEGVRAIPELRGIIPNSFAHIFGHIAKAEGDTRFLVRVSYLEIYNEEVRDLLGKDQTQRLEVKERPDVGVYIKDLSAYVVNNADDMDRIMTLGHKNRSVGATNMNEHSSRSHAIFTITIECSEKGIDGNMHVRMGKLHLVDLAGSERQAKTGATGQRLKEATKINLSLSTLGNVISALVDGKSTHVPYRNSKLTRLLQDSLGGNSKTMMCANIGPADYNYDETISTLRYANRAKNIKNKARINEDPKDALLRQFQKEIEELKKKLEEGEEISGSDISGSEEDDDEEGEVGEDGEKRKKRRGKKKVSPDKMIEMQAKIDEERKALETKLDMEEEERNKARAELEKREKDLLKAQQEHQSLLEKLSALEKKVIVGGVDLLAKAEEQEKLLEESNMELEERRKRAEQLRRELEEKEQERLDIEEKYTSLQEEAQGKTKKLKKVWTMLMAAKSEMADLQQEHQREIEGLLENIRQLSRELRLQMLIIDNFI
Chain of Kif3A^ΔC103-Kif3B (O15066 whole entry, stated change not applied): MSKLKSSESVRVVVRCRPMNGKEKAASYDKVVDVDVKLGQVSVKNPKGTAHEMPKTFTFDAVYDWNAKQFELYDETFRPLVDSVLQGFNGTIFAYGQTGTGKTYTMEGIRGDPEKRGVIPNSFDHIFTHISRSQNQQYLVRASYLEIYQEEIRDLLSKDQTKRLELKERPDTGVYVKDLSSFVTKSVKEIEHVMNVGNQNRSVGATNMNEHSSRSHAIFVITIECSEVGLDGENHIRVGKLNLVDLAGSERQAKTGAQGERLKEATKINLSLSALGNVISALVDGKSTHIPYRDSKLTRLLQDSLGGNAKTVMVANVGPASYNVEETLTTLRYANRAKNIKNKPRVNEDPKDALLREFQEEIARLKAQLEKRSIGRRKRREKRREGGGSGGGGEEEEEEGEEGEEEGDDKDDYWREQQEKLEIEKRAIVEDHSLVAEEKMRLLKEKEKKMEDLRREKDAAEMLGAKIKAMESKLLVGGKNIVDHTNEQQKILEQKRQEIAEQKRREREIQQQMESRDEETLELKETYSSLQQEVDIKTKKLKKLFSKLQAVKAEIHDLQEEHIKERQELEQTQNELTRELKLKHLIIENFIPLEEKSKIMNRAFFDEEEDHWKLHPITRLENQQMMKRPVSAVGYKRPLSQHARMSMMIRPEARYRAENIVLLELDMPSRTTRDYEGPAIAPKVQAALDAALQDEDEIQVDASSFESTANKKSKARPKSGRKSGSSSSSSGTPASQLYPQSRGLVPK
Chain of Kif3A^ΔC89-Kif3B (Q9Y496 1-610, stated change not applied): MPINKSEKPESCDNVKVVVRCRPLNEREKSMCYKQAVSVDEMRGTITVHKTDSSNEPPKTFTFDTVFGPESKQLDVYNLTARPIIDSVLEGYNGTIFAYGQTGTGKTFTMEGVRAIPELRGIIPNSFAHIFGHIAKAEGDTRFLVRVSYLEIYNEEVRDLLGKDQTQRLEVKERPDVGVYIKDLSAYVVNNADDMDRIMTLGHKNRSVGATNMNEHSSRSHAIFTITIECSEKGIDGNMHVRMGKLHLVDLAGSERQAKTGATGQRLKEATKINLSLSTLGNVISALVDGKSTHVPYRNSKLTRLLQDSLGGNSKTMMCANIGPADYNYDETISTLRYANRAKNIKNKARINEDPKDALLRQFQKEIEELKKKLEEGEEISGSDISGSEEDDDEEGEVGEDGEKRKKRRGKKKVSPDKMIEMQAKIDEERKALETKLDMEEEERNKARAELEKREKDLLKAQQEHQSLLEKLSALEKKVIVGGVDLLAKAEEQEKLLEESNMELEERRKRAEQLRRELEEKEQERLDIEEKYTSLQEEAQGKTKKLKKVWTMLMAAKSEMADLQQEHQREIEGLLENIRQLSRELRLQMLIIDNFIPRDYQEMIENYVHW
Chain of Kif3A^ΔC89-Kif3B (O15066 whole entry, stated change not applied): as the sequence (O15066 whole entry, stated change not applied) above

landing rate (μm^-1 nM^-1 min^-1) | Substance
0.6 | Kif3A^ΔC89-Kif3B (from UniProt Q9Y496 1-610; O15066 1-747) (complex)
0.6 | Kif3A^ΔC103-Kif3B (from UniProt Q9Y496 1-596; O15066 1-747) (complex)
